From article PMC4645341 (Journal of Virology, 2015)
Where no end group is shown, it is not given here.

Legend:
[1] = target: MPER-TM1 (HIV-1 (strain not stated)); assay: ELISA
4E10 WT Fab = assay: SPR
[2] = target: Recombinant gp41 (r-gp41; HIV-1MN isolate) (HIV-1 isolate MN, UniProt P05877); assay: ELISA
Recombinant gp41 (r-gp41; HIV-1MN isolate), sequence (P05877 whole entry, looked up): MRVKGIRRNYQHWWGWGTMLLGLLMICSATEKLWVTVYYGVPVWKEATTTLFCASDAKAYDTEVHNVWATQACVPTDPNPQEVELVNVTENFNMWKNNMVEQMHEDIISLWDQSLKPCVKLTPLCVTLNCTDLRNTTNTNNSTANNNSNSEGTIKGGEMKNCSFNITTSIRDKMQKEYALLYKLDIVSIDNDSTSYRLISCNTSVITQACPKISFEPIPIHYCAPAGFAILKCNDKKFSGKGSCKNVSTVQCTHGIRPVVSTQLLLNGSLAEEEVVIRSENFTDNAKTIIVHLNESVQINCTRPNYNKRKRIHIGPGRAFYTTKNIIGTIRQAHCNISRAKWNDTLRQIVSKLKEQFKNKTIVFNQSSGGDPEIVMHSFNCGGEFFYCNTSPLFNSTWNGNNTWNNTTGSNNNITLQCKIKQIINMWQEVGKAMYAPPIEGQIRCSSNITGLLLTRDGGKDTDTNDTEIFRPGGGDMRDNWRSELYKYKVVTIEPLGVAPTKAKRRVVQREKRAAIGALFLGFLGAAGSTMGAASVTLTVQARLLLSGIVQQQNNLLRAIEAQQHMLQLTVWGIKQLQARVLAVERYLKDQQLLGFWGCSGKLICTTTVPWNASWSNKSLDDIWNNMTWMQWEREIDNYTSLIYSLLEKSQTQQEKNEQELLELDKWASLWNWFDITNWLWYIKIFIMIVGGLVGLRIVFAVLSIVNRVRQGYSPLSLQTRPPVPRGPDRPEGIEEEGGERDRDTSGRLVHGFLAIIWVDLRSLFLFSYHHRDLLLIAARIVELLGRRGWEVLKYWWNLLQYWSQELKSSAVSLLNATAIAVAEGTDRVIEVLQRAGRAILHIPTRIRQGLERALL

With 4E10 WT Fab the EC50 [1] was 1 nM.

4E10 IgG1 MAb (antibody) showed an EC50 [1] of 0.1 nM.

B1: 4E10ep variant (…-RRR) (peptide)
peptide: NWFDITNWLWYIRRRR-NH2
B1 showed a Kd (4E10 WT Fab) of 21 nM, a dH (van't Hoff) (4E10 WT Fab) of -11.5 kcal/mol and a koff (4E10 WT Fab) of 0.0011 s⁻¹.

B2: 4E10 WDWD Fab (Fab, V domains shown)
VH: VQLVQSGAEVKRPGSSVTVSCKASGGSFSTYALSWVRQAPGRGLEWMGGVIPLLTITNYAPRFQGRITITADRSTSTAYLELNSLRPEDTAVYYCAREGTTGDGDLGKPIGAFAHWGQGTLVTVSS
VL: EIVLTQSPGTQSLSPGERATLSCRASQSVGNNKLAWYQQRPGQAPRLLIYGASSRPSGVADRFSGSGSGTDFTLTISRLEPEDFAVYYCQQYGQSLSTFGQGTKVEVK
B2: binds [2].
